Among the data in the supplement of paper PMC10567573 are protein stability index values, retold here.

The data set can be described thus: protein stability index of a GFP-peptide fusion (GPS, HEK-293T) (PSI 1-6); higher = more stable.
The mark [1] stands for this setting: treatment: DMSO, c terminus: a fixed tail appended.
Setting [2] is: treatment: MLN4924 1 uM, 8 h, c terminus: a fixed tail appended.

± gives the standard deviation.
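Also: 24-mer peptide tiles fused after GFP, lentivirally expressed, FACS-sorted into six equal bins by GFP/DsRed ratio, decoded by Illumina sequencing, PSI is the read-weighted mean bin number.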

Regarding PEPPAAVDFLEPDSGTCPEVDEEG [FCHO1], the protein stability index came out at 5.48 ± 0.26 under setting [1] and 5.54 ± 0.21 under setting [2].
Take PFGESNGNGVHVCNVKYKRWALLS [KLHDC10]: the protein stability index is 2.08 ± 0.22 under setting [1] and 2.26 ± 0.33 under setting [2].
The corresponding values for PGARGLWKPPDIKGKLMVCYETLP [SPAG8] are 2.56 ± 0.26 and 2.51 ± 0.16.
On to PGASTEEVKRAFFSKSKELHPDRD [DNAJC4], for which the protein stability index was 5.12 ± 0.28 under setting [1] and 5.18 ± 0.079 under setting [2].
On the same counts, the results for PGGGDICMYRHALPPGFVLKKDKK [ZC3H15] are 4.29 ± 0.2 and 4.04 ± 0.1.
Under setting [2], PGNLEKNRYGDVPCLDQTRVKLTK [PTPN9] yielded a protein stability index of 4.32 ± 0.72.
As to PHIYGARIKGVEVFCPLDPPPPYE [FAM189A2], the protein stability index amounted to 2.96 ± 0.17 under setting [1] and 3.04 ± 0.19 under setting [2].
The corresponding values for PIDPAAWVSHTAAMTGTFPAYGMS [DVL3] are 2.73 ± 0.36 and 2.75 ± 0.18.
Regarding PIFMRKDTKMSFQWRIRNLPYPKD [DPCD], the protein stability index runs as follows: under setting [1], 2.27 ± 0.27; under setting [2], 2.22 ± 0.069.
With PKAQLSGYAVEATRNQSQLQRFL [FBF1], the protein stability index (treatment: DMSO, c terminus: native) turned out to be 4.13 ± 0.19 and the protein stability index (treatment: MLN4924 1 uM, 8 h, c terminus: native) came out at 4.21 ± 0.38.
Turning to PKDIMTNTHAKSILNSMNSLRKSN [KLHL12], the protein stability index by setting is: under setting [1], 3.48 ± 0.099; under setting [2], 3.73 ± 0.34.
PKKEANQAPKSKSGSRPRKPPPRK [LRRC59] registered a protein stability index under setting [1] of 4.92 ± 0.21 and a protein stability index under setting [2] of 5 ± 0.18.
Consider PKPDRLLVLKVLWNDFLMCYSSRP [SLC19A2], for which the protein stability index under setting [1] was 2.89 ± 0.2 and the protein stability index under setting [2] stood at 3.08 ± 0.46.
On to PLVALDTDSDDDFDMSRYSSSGYS [FAM219A], for which the protein stability index reads like this: under setting [1], 4.59 ± 0.52; under setting [2], 4.76 ± 0.38.
Consider PLVTPPQSPVSPQPPAITQVHRQG [SMTNL2], for which the protein stability index reads like this: under setting [1], 4.56 ± 0.35; under setting [2], 4.58 ± 0.053.
The corresponding values for PMVNHAEASRLNIERMKQIYQQLS [CRY1] are 2.81 ± 0.34 and 2.77 ± 0.25.
In the case of PNFNFNISHQGDYAVLAAEPELQV [AASDHPPT], the protein stability index is 4 ± 0.09 under setting [1] and 3.93 ± 0.39 under setting [2].
Regarding PNGLEAAYEFADRDEVRFFKGNKY [MMP1], the protein stability index reads like this: under setting [1], 3.74 ± 0.44; under setting [2], 3.83 ± 0.3.
Turning to PPHYFFTYRIRIEMSKDALPEKAC [FBXO3], the protein stability index came to 2.47 ± 0.48 under setting [1] and 2.17 ± 0.23 under setting [2].
As to PPVSQSRSLFSSVPSKPPMSLEPQ [ANKRD40], the protein stability index stood at 4.53 ± 0.11 under setting [1] and 4.68 ± 0.4 under setting [2].
With PQAPAPATATDTFEAAPPAPAPAP [CEBPB], the protein stability index runs as follows: under setting [1], 5.28 ± 0.51; under setting [2], 5.38 ± 0.35.
PQEAAGAQGRAGAPVPEPPKEEQQ [EPB41L3] returned a protein stability index under setting [1] of 5.2 ± 0.45 and a protein stability index under setting [2] of 5.75 ± 0.26.
Consider PQGSGFCLGQLNLEQRSESVRRTR [SMAD6], for which the protein stability index is, setting by setting: under setting [1], 4.39 ± 0.26; under setting [2], 4.67 ± 0.43.
With PQPHRNRAGLDLPTIDTGYDSQPQ [TRAF3IP2], the protein stability index by setting is: under setting [1], 4.58 ± 0.2; under setting [2], 4.76 ± 0.19.
On to PQYRSYFMECLVDARMLDHLTKKD [PPFIA4], for which the protein stability index amounted to 2.7 ± 0.2 under setting [1] and 2.58 ± 0.17 under setting [2].
Sequence PRARRRLGSGPDRELRKPEEPENG [PWWP2B] came in with a protein stability index under setting [1] of 5.43 ± 0.14 and a protein stability index under setting [2] of 5.42 ± 0.2.
On the same counts, the results for PREALSRLQELCHGWLRPEMRTKE [ZNF263] are 3.31 ± 0.23 and 3.55 ± 0.28.
With PRFHMACPTFRVSIARLEMGPDEY [FBXO3], the protein stability index was 2.82 ± 0.21 under setting [1] and 2.72 ± 0.24 under setting [2].
The corresponding values for PRGRRISVICRSLPEGMGPGESGQ [ALKBH7] are 3.69 ± 0.11 and 3.95 ± 0.37.
